Source: publication PMC6221367, “A dual regulatory circuit consisting of S-adenosylmethionine decarboxylase protein and its reaction product controls expression of the paralogous activator prozyme in Trypanosoma brucei” (PLoS Pathogens, 2018)

Columns and labels:
[1] = substrate: CSCC[C@H](N)C(=O)O; experiment: coupled spectroscopic assay of pyrophosphate release (A340); assay type: biochemical, Trypanosoma brucei; conditions: 150 nM enzyme, co-substrate ATP, 5 mM MgSO4 and 100 mM KCl in 50 mM HEPES assay buffer, pH 8.0, 37 °C, parenthesis = 95% CI
Description: (§1) coupled spectroscopic assay of pyrophosphate release (A340) on TbAdoMetSyn

[2] = substrate: Nc1ncnc2c1ncn2[C@@H]1O[C@H](COP(=O)(O)OP(=O)(O)OP(=O)(O)O)[C@@H](O)[C@H]1O; experiment: as above; assay type: biochemical, Trypanosoma brucei; conditions: 150 nM enzyme, co-substrate methionine, 5 mM MgSO4 and 100 mM KCl in 50 mM HEPES assay buffer, pH 8.0, 37 °C, parenthesis = 95% CI
Description: as §1

B1: TbAdoMetSyn (Trypanosoma brucei brucei TREU927) (protein)
chain: MSVRQIFFTSEHVSEGHPDKLCDQVSDAVLDACLEQDPLSKVACETCSKTGMVLVFGEITTKAVIDYQKVVRDTVKEIGFDNTEKGLDYRSLNLLVAVEQQSPDIYQGLGDFGGENLGAGDQGMMFGYATNETETLMPLSYELARGLAMTYSELRRNGGLPWARPDAKTQVTVQYEYDTRGGKQLLTPKRVAVILVSAQLDDGVSNETIREDLVKKVISTTIPAKFLDENTKYHLNPSGRFVIGGPHGDAGLTGRKIIVDTYGGWGAHGGGAFSGKDPSKVDRSAAYAARWIAKSLVAAGLADRCLVQLSYAIGVAEPLNIHVDTYGTGKRDDEYILGIVQKNFRLRPYDIIKELDLRRPIYRQTACFGHFGRVDTNGKGGFTWEVPKTLEGLSDVQ
notes: E. coli BL21(DE3); His6-tag removed by TEV protease
Km [1]: 0.031 (0.025–0.039) mM | kcat [1]: 0.19 s⁻¹ | Km [2]: 0.31 (0.24–0.40) mM | kcat [2]: 0.21 s⁻¹
